“Also recorded” adds a separate entry of the source.
Assays:
[1] = system: norepinephrine and dopamine in the hippocampus; assay: Hippocampal catecholamine measurements (HPLC-ECD); type: in vivo, mice; details: 1 mg/kg leptin daily
Experimental: Control mice received food ad-libitum. Diet-restricted mice received a diet of 57 kCal/week/mouse (2.16 g/day/mouse) as 60% of the requirement, or 38 kCal/week/mouse (1.44 g/day/mouse) for 40%/DR. DR was carried out for 10 days. Behavioral test was performed using the eight-arm spatial maze during the second week of experiment. During the behavioral tests, half of the animals in each group were injected intraperitoneally (i.p) with AICAR (1-2 mM equal to 258-516 mg/kg) or leptin (1 mg/kg) and the other half with saline. Mice were sacrificed by decapitation after the behavioral tests and the hippocampi were frozen at -70° C. Catecholamines were measured as described previously ([…] et al (1996), Brain Res. 732, 133-144. The assays for dopamine and NE were performed by HPLC separation and detection using HPLC-ECD. Values are presented as a concentration (ng/mg tissue).

AMPK = assay: Hippocampal AMPK phosphorylation by immunoblotting; type: in vivo; details: 40% diet restricted mice, 1 mg/kg leptin for 72 h
Experimental: Total hippocampal Protein was extracted using TriFast reagent. Aliquots of the clarified lysates containing […] were denatured in Laemmli sample buffer (6% SDS 30%, glycerol, 0.02% bromophenol blue, 200 mM Tris-HCl (pH 6.8), and 250 mM-mercaptoethanol, at 95° C. for 5 min. The samples were resolved by SDS-PAGE (10% acrylamide), and blotted onto nitrocellulose membrane. Non-specific binding in a Western blot analysis was prevented by immersing the membranes in blocking buffer (5% nonfat dry milk in Tris-buffer saline-Tween 20 (TBS-T)), for 2 h at room temperature. The membranes were then exposed to the indicated antibodies diluted 1:1000 for 1 h at room temperature. AMPK, phospho-AMPK and PARP were obtained from Cell Signaling. Bax, bcl-2 and actin were from Santa Cruz Biotechnology Inc. (Santa Cruz, Calif.). The blots were rinsed in TBS-T and then incubated with horseradish peroxidase-conjugated goat anti-mouse antibodies 1:10,000 for 1 h at room temperature. Antibody-antigen complexes were visualized by detecting enhanced chemiluminescence with X-ray film.
Leptin is a key hormone in the regulation of energy balance and is known to modulate AMPK activity in other systems^15,16. The manner by which leptin may interact with AMPK in modulating brain function was further investigated. Leptin was analyzed functionality under different degrees of diet restriction. […]

mice [2] = assay: Morris Water Maze in diet-restricted mice; type: in vivo; details: leptin 1 mg/kg daily; data not shown
Experimental: The effects of leptin administration (restoration) on neural function in diet-restricted mice was investigated. Mice were assigned at random to 4 groups. The groups were kept under ad libitum or DR to 40% for 10 days and injected daily with either 1 mg/kg leptin or saline for 5 days during the second week. […] Cognitive performance improvement was also observed in the Morris Water Maze (data not shown). Then the effects on the concentrations of NE and dopamine in the hippocampus were evaluated. […] To elucidate the cellular mechanisms involved in leptin effects, proteins associated with apoptosis were determined by immunoblotting. Leptin induced up-regulation of bcl-2 while reducing Bax levels. […] The anti-apoptotic effect of leptin was further confirmed by detection of activated caspase-3 expression as ?of apoptotic cell death. Activated caspase-3 could not be detected in the hippocampi of control animals.

mice [3] = assay: Survival of mice under severe energy restriction (40% DR); type: in vivo; details: for survival time: Kaplan Meir log rank p<0.05
Experimental: Severe energy restriction leads to deterioration of neural function and eventually death. Since leptin can improve cognitive function following DR to 40% and prevents neural apoptosis, it was investigated whether it may also promote mice survival under these same severe conditions. In the first experiment, mice were fed ad libitum or DR to 40% for 12 days and injected daily with 1 mg/kg leptin or saline during the second week (5 days). 95% of the mice survived with leptin treatment compared to 65% in the control group (p<0.05). In a second experiment, mini-osmotic pumps delivering 0.05 mg/kg/h leptin or saline continuously for 16 days were implanted in mice under 40% DR (12 animals in each group). […] The 50% survival in the treated group increased from 9 to 14 days. (FIG. 5).

Cultured cardiomyocytes [4] = assay: Cardiomyocyte viability after glucose deprivation (WST); type: cell-based; details: glucose deprivation for 1, 3, 6 h
Experimental: Cultured cardiomyocytes were exposed to glucose deprivation for 1, 3, 6 h and were treated with Leptin as described above. Cell viability was analyzed by WST.

Cultured cardiomyocytes [5] = assay: Apoptosis of glucose-deprived cardiomyocytes by FACS; type: cell-based; details: glucose deprived condition for 1, 2, 6 h, 1 ug/ml Leptin
Experimental: In another experiment cultured cardiomyocytes exposed to glucose deprived condition for 1, 2, 6 h were treated with 1 ug/ml Leptin. Apoptotic cell death was detected by FACS analysis.

mice [6] = assay: Neurological score in TAA model of hepatic encephalopathy; type: in vivo; details: TAA treated mice, Leptin daily for 5 days
Experimental: Mice were treated with TAA, then 1 mk/kg Leptin was administered daily for 5 days and neurological score was evaluated

B1: leptin: Murine leptin provided by A. Gertler; adipokine hormone, full leptin is a 146 amino acid sequence (protein, UniProt P41160 22-167, looked up)
Leptin: VPIQKVQDDTKTLIKTIVTRINDISHTQSVSAKQRVTGLDFIPGLHPILSLSKMDQTLAVYQQVLTSLPSQNVLQIANDLENLRDLLHLLAFSKSCSLPQTSGLQKPESLDGVLEASLYSTEVVALSRLQGSLQDILQQLDVSPEC
For B1, the “dopamine concentrations in the hippocampus” value ([1]; AL group) was “down-regulated”, the “dopamine concentrations in the hippocampus” value ([1]; DR group (40%)) was “did not induce any significant reduction” and the “NE concentration in the hippocampus” value ([1]; DR to 40%) was “reversed the reduction of NE”. For the same molecule, the “hippocampal AMPK phosphorylation” value (AMPK) was “significantly reduced”, the “cognitive performance in the Morris Water Maze” value (mice [2]) was “improvement” and the 50% survival (mice [3]; 40% DR, mini-osmotic pump 0.05 mg/kg/h leptin for 16 days, 9 days with saline) was 14 days. The survival time (mice [3]; 40% DR, mini-osmotic pump 0.05 mg/kg/h leptin for 16 days) was “survived significantly longer”, the survival time (mice [3]; 40% DR, mini-osmotic pump 0.05 mg/kg/h leptin for 16 days, listed as Leptin) was “increases survival” and the mice survived (mice [3]; DR to 40% for 12 days, 1 mg/kg leptin daily during second week (5 days), 65% in control group, p<0.05) was 95%. For the same molecule, the “cell viability (WST)” value (Cultured cardiomyocytes [4]) was “increased significantly the viability; also recorded: induces survival”, the “apoptotic cell death (FACS)” value (Cultured cardiomyocytes [5]) was “reduced apoptotic death” and the “apoptotic cell death (FACS)” value (Cultured cardiomyocytes [5]; listed as Leptin) was “decreased apoptosis”. For the same molecule, the neurological score (mice [6]) was “reversed impaired neurological score”.
